According to PMC10973816:

B1: mouse mGluR6 (metabotropic glutamate receptor 6), wild type, complex N-glycosylated form (upper dimer band, band C) [modified: complex N-glycosylation (Endo H-resistant, PNGase F-sensitive); N-glycosylation sites N290, N445 … (parent)
chain 1: AGSVRLAGGLTLGGLFPVHARGAAGRACGTLKKEQGVHRLEAMLYALDRINADPELLPGVRLGARLLDTCSRDTYALEQALSFVQALIRGRGDGEEASVRCPGGVPPLRAAPPERVVAVVGASASSVSIMVANVLRLFAIPQISYASTAPELSDSTRYDFFSRVVPPDSYQAQAMVDIVRALGWNYVSTLASEGNYGESGVEAFVQISREAGGVCIAQSIKIPREPKPGEFHKVIRRLMETPNARGIIIFANEDDIRRVLEATRQANLTGHFLWVGSDSWGSKISPILNLEEEAVGAITILPKRASIDGFDQYFMTRSLENNRRNIWFAEFWEENFNCKLTSSGGQSDDSTRKCTGEERIGQDSTYEQEGKVQFVIDAVYAIAHALHSMHQALCPGHTGLCPAMEPTDGRTLLHYIRAVRFNGSAGTPVMFNENGDAPGRYDIFQYQATNGSASSGGYQAVGQWAEALRLDMEALQWSGDPHEVPPSQCSLPCGPGERKKMVKGVPCCWHCEACDGYRFQVDEFTCEACPGHMRPTPNHTGCRPTPVVRLTWSSPWAALPLLLAVLGIMATTTIIATFMRHNDTPIVRASGRELSYVLLTGIFLIYAITFLMVAEPCAAVCASRRLLLGLGTTLSYSALLTKTNRIYRIFEQGKRSVTPPPFISPTSQLVITFGLTSLQVVGVIAWLGAQPPHSVIDYEEQRTVDPEQARGVLKCDMSDLSLIGCLGYSLLLMVTCTVYAIKARGVPETFNEAKPIGFTMYTTCIIWLAFVPIFFGTAQSAEKIYIQTTTLTVSLSLSASVSLGMLYVPKTYVILFHPEQNVQKRKRSLKKTSTMAAPPKSENSEDAK
chain 2: DCWLIEGDKGYVWLAICSQNQPPYETIPQHINSTVHDLRLNENKLKAVLYSSLNRFGNLTDLNLTKNEISYIEDGAFLGQTSLQVLQLGYNRLSNLTEGMLRGMSRLQFLFVQHNLIEVVTPTAFSECPSLISIDLSSNRLSRLDGATFASLASLMVCELAGNPFNCECDLFGFLAWLVVFNNVTKNYDRLQCESPREFAGYPLLVPRPYHSLNAITVLQAKCRNGSMPARPVSHPTPYSTDAQREPDENSGFNPDEILSVEPPASSTTDASAGPAIKLHQVTFTSATLVVIIPHPYSKMYVLVQYNNSYFSDVMTLKNKKEIVTLDKLRAHTEYTFCVTSLRNSRRFNHTCLTFTTRDLVPGDLAPSTSTTTHY
B2: mouse mGluR6 (metabotropic glutamate receptor 6), wild type, complex N-glycosylated form (upper dimer band, band C) [modified: complex N-glycosylation (Endo H-resistant, PNGase F-sensitive); N-glycosylation sites N290, N445 … (parent)
chain 1: B1 chain 1
chain 2: QGDCWLIEGDKGFVWLAICSQNQPPYEAIPQQINNTIVDLRLNENRIRSVQYASLSRFGNLTYLNLTKNEIGYIEDGAFSGQFNLQVLQLGYNRLRNLTEGMLRGLSKLEYLYLQANLIEVVMASAFWECPNIVNIDLSMNRIQQLGSGTFAGLTKLSVCEIYSNPFYCSCELLGFLRWLAAFTNATQTHDRVQCESPPVYAGYFLLGQGRHGHQRSILSKLQSVCTEGSYTAEVLGPPRPVPGRSQPGHSPPPPPPEPSDMPCADDECFSGDGTTPLVILTTLVPQTEARPSMKVKQLTQNSATIMVQLPSPFNRMYTLEQYNNSKSFTVSKLTQPQEEIRLTNLYTLTNYTYCVVSTSSGTHHNHTCLTICLPKPPSPPGPVPSPSTATHY

Variants of: B1
Assay: pull-down
Conditions: with ELFN2 extracellular domain fused to human Fc [mouse]; parent: 1; read off a plot

Row | ratio to parent | Variant
1 | 0.04 | chain 1 N422Q
2 | 0.52 | chain 1 N267Q
3 | 0.32 | chain 1 N538Q
4 | 0.32 | chain 1 N450Q

Variants of: B2
Assay: pull-down
Conditions: with ELFN1 extracellular domain fused to human Fc [mouse]; parent: 1; read off a plot

Row | ratio to parent | Variant
5 | 0.05 | chain 1 N422Q
6 | 0.59 | chain 1 N267Q

Continued, variant first:

Row | Variant | ratio to parent
7 | chain 1 N450Q | 0.6
8 | chain 1 N538Q | 0.13

Same assay, conditions: with ELFN1 extracellular domain fused to human Fc [mouse]; five times more transfected cells were used for 4Q; parent: 1; read off a plot

Row | ratio to parent | Variant
9 | 0.04 | chain 1 N267Q N422Q N450Q N538Q
